The target of this experiment is proteasome αΔ12-subunit (Thermoplasma acidophilum 20S proteasome α-subunit, first 12 residues removed) (Thermoplasma acidophilum, UniProt P25156 13-233). Description: […].

The text below walks through data of publication doi:10.1101/2020.12.04.411884 (bioRxiv, 2020).

Sequence of proteasome αΔ12-subunit (Thermoplasma acidophilum 20S proteasome α-subunit, first 12 residues removed) (P25156 13-233, stated change not applied): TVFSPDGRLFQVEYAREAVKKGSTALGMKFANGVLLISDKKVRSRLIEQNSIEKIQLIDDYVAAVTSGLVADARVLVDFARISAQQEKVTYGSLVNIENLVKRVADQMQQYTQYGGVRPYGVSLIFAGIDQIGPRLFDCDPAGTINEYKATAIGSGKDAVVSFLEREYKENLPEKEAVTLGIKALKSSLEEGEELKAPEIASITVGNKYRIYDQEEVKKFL

B1: proteasome β-subunit (Thermoplasma acidophilum 20S proteasome) (natural protein)
chain: TTTVGITLKDAVIMATERRVTMENFIMHKNGKKLFQIDTYTGMTIAGLVGDAQVLVRYMKAELELYRLQRRVNMPIEAVATLLSNMLNQVKYMPYMVQLLVGGIDTAPHVFSIDAAGGSVEDIYASTGSGSPFVYGVLESQYSEKMTVDEGVDLVIRAISAAKQRDSASGGMIDVAVITRKDGYVQLPTDQIESRIRKLGLIL
B1: the binding result is “binds”.
